No end group written: not given here.

Targets include bovine trypsin (bovine, UniProt P00760); bovine chymotrypsin (bovine, UniProt P00766); human cathepsin G (human, UniProt P08311); human plasmin (human, UniProt P00747).
What all share (assay): enzyme inhibition at equilibrium, steady state velocities fitted to the equation for tight binding inhibitors
Assay [1] deals with porcine tissue kallikrein (porcine, UniProt P00752).

B1: hirustasin (Hirudo antistasin) (other)
chain: TQGNTCGGETCSAAQVCLKGKCVCNEVHCRIRCKYGLKKDENGCEYPCSCAKASQ
modifications: not fully specified; cysteine pairing not given here
For B1, the Ki with bovine trypsin is 7 nM; in the assay with bovine chymotrypsin, 6.4 nM; in the assay with human cathepsin G, 2.9 nM; in assay [1] it was 13 nM; with human plasmin it was 138 nM.
